Data from FireProtDB (doi:10.1021/bi00369a002).
“And” between values parts separate entries of the source, which are not always exact repeats. Equal entries are not always repeated.

Conditions: Escherichia coli (strain K12); pH 7.8; 25 °C; Urea; Absorbance; Potassium phosphate 10 mM; transition: 3; whole UniProt chain shown

B1: Tryptophan synthase alpha chain wild type, P0A877 (protein)
chain: MERYESLFAQLKERKEGAFVPFVTLGDPGIEQSLKIIDTLIEAGADALELGIPFSDPLADGPTIQNATLRAFAAGVTPAQCFEMLALIRQKHPTIPIGLLMYANLVFNKGIDEFYAQCEKVGVDSVLVADVPVEESAPFRQAALRHNVAPIFICPPNADDDLLRQIASYGRGYTYLLSRAGVTGAENRAALPLNHLVAKLKEYNAAPPLQGFGISAPDQVKAAIDAGAAGAISGSAIVKIIEQHINEPEKMLAALKVFVQPMKAATRS
  denaturant m value: 2.2 kcal/mol/M and 1.2 kcal/mol/M
  denaturant midpoint (higher = more stable): 2.62 M and 4.18 M
